Data taken from FireProtDB (doi:10.1021/bi060038+).

B1: Phosphocarrier protein HPr, P08877 (parent)
chain: MAQKTFKVTADSGIHARPATVLVQTASKYDADVNLEYNGKTVNLKSIMGVMSLGIAKGAEITISASGADENDALNALEETMKSEGLGE

Variants of: B1
Settings: Bacillus subtilis (strain 168), pH 7, CD, sodium phosphate 10 mM, reversible: Yes, structure 2HPR, whole UniProt chain shown; for ddG of mutation (higher = less stable) / denaturant m value / unfolding free energy: 25 °C; for Tm / change of melting temperature, mutant - wild type (higher = more stable) / unfolding enthalpy (van 't Hoff): Thermal

| Variant | ddG of mutation (higher = less stable) (GdnHCl) | denaturant m value (GdnHCl) | unfolding free energy (GdnHCl) | ddG of mutation (higher = less stable) (Urea) | denaturant m value (Urea) | unfolding free energy (Urea) | Tm | change of melting temperature, mutant - wild type (higher = more stable) | unfolding enthalpy (van 't Hoff) |
| --- | --- | --- | --- | --- | --- | --- | --- | --- | --- |
| A2K N71E | -1.1 kcal/mol | 3.37 kcal/mol/M | 4.5 kcal/mol | -1.1 kcal/mol | 0.95 kcal/mol/M | 6.1 kcal/mol | 79.6 °C | 6.6 °C | 85 kcal/mol |
| A2R N71E | -1.5 kcal/mol | 3.39 kcal/mol/M | 4.9 kcal/mol |  |  |  | 83.1 °C | 10.1 °C | 91 kcal/mol |
